Laboratory results as given in paper PMC9253770, “The C-Terminal Domain of Y-Box Binding Protein 1 Exhibits Structure-Specific Binding to Poly(ADP-Ribose), Which Regulates PARP1 Activity”.

Target: YB-1 (Δ1-2) (UniProt P67809 1-230)
Experiment: fluorescence anisotropy; DNA binding similar to full-length; EC50 within 1100-3100 nM, exact value only in figure; 50 mM Tris-HCl pH 8.0, 40 mM NaCl, 1 mM DTT, 100 ug/ml BSA, 50 nM FAM-DNA, 25 C (anisotropy). PAR EMSA rows left out: PAR is a heterogeneous polymer without a defined nucleic acid sequence
Conditions: protein: recombinant; label: 5'-FAM on strand 1; nicked 32-bp duplex, blunt ends; nick opposite strand 1 positions 15/16

Chain of YB-1 (Δ1-2) (P67809 1-230, stated change not applied): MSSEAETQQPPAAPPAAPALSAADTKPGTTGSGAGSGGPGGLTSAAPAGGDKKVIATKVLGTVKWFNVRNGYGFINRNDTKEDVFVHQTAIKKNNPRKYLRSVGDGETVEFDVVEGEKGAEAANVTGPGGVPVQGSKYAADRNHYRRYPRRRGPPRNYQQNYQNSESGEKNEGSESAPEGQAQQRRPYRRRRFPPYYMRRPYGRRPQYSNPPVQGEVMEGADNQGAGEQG

B1: Nick (FAM-labeled nicked DNA duplex) (dsDNA)
DNA 1: CCGCTATTTCAACCCTTTGCAGTCCCAGAAGG
DNA 2: GGGTTGAAATAGCGG
DNA 3: CCTTCTGGGACTGCAAA
modifications: phosphate on the 17-mer (printed as 5'-p…)
Does B1 bind?
Result: binds
